Holding throughout (experiment): PIE-FCCS
The target in data set [1] is Plexin A4 (human, UniProt Q9HCM2 24-1894).
For data set [2], the target named is T1, Plexin A4ΔSema (human, UniProt Q9HCM2 24-1894, deletes residues 39-506).
T1 sequence (looked up): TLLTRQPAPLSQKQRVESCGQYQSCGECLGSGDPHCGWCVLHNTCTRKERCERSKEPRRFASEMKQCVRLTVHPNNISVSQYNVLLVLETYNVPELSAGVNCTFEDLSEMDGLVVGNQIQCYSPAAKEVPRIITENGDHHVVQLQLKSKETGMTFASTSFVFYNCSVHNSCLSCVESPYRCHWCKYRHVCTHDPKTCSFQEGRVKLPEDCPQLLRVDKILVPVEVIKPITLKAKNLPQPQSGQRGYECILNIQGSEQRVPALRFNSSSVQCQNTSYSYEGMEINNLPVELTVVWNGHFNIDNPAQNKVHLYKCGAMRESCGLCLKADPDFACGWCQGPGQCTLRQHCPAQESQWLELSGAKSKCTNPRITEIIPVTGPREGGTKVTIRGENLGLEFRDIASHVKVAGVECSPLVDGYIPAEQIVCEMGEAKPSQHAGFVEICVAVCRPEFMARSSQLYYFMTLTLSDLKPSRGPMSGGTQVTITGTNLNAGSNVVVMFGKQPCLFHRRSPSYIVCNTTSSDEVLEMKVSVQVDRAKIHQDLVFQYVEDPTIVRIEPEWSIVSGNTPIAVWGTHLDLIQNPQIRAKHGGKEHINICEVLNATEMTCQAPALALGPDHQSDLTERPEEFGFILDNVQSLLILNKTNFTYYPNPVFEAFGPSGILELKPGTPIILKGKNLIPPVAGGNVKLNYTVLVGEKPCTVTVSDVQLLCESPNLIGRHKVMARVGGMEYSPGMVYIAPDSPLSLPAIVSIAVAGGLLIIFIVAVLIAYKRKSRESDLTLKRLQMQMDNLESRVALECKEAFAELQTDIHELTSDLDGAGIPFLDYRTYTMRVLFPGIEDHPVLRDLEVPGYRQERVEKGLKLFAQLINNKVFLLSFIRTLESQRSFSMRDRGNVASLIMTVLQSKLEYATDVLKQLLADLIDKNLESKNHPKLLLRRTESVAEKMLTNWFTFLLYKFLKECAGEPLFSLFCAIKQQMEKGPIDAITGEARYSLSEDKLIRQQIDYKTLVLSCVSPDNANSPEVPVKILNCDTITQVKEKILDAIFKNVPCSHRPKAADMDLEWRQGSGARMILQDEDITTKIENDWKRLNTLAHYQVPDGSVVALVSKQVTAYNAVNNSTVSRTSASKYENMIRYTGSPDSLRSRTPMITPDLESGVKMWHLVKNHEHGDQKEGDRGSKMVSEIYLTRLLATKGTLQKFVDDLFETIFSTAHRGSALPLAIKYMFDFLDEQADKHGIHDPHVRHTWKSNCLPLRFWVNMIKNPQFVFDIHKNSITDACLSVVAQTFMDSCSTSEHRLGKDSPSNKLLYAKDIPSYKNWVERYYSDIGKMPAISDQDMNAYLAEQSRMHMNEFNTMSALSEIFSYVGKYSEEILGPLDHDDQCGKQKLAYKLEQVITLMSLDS

Data set [3] concerns the molecule itself.

Usually stoichiometry N stands for the number of molecules, sites or subunits per partner or assembly.

B1: Plexin A2 (receptor, human, UniProt O75051 35-1894, looked up)
chain: MPQFSTFHSENRDWTFNHLTVHQGTGAVYVGAINRVYKLTGNLTIQVAHKTGPEEDNKSCYPPLIVQPCSEVLTLTNNVNKLLIIDYSENRLLACGSLYQGVCKLLRLDDLFILVEPSHKKEHYLSSVNKTGTMYGVIVRSEGEDGKLFIGTAVDGKQDYFPTLSSRKLPRDPESSAMLDYELHSDFVSSLIKIPSDTLALVSHFDIFYIYGFASGGFVYFLTVQPETPEGVAINSAGDLFYTSRIVRLCKDDPKFHSYVSLPFGCTRAGVEYRLLQAAYLAKPGDSLAQAFNITSQDDVLFAIFSKGQKQYHHPPDDSALCAFPIRAINLQIKERLQSCYQGEGNLELNWLLGKDVQCTKAPVPIDDNFCGLDINQPLGGSTPVEGLTLYTTSRDRMTSVASYVYNGYSVVFVGTKSGKLKKIRADGPPHGGVQYEMVSVLKDGSPILRDMAFSIDQRYLYVMSERQVTRVPVESCEQYTTCGECLSSGDPHCGWCALHNMCSRRDKCQQAWEPNRFAASISQCVSLAVHPSSISVSEHSRLLSLVVSDAPDLSAGIACAFGNLTEVEGQVSGSQVICISPGPKDVPVIPLDQDWFGLELQLRSKETGKIFVSTEFKFYNCSAHQLCLSCVNSAFRCHWCKYRNLCTHDPTTCSFQEGRINISEDCPQLVPTEEILIPVGEVKPITLKARNLPQPQSGQRGYECVLNIQGAIHRVPALRFNSSSVQCQNSSYQYDGMDISNLAVDFAVVWNGNFIIDNPQDLKVHLYKCAAQRESCGLCLKADRKFECGWCSGERRCTLHQHCTSPSSPWLDWSSHNVKCSNPQITEILTVSGPPEGGTRVTIHGVNLGLDFSEIAHHVQVAGVPCTPLPGEYIIAEQIVCEMGHALVGTTSGPVRLCIGECKPEFMTKSHQQYTFVNPSVLSLNPIRGPESGGTMVTITGHYLGAGSSVAVYLGNQTCEFYGRSMSEIVCVSPPSSNGLGPVPVSVSVDRAHVDSNLQFEYIDDPRVQRIEPEWSIASGHTPLTITGFNLDVIQEPRIRVKFNGKESVNVCKVVNTTTLTCLAPSLTTDYRPGLDTVERPDEFGFVFNNVQSLLIYNDTKFIYYPNPTFELLSPTGVLDQKPGSPIILKGKNLCPPASGGAKLNYTVLIGETPCAVTVSETQLLCEPPNLTGQHKVMVHVGGMVFSPGSVSVISDSLLTLPAIVSIAAGGSLLLIIVIIVLIAYKRKSRENDLTLKRLQMQMDNLESRVALECKEAFAELQTDINELTSDLDRSGIPYLDYRTYAMRVLFPGIEDHPVLRELEVQGNGQQHVEKALKLFAQLINNKVFLLTFIRTLELQRSFSMRDRGNVASLIMTGLQGRLEYATDVLKQLLSDLIDKNLENKNHPKLLLRRTESVAEKMLTNWFAFLLHKFLKECAGEPLFMLYCAIKQQMEKGPIDAITGEARYSLSEDKLIRQQIEYKTLILNCVNPDNENSPEIPVKVLNCDTITQVKEKILDAVYKNVPYSQRPRAVDMDLEWRQGRIARVVLQDEDITTKIEGDWKRLNTLMHYQVSDRSVVALVPKQTSSYNIPASASISRTSISRYDSSFRYTGSPDSLRSRAPMITPDLESGVKVWHLVKNHDHGDQKEGDRGSKMVSEIYLTRLLATKGTLQKFVDDLFETLFSTVHRGSALPLAIKYMFDFLDEQADRHSIHDTDVRHTWKSNCLPLRFWVNVIKNPQFVFDIHKGSITDACLSVVAQTFMDSCSTSEHRLGKDSPSNKLLYAKDIPSYKSWVERYYADIAKLPAISDQDMNAYLAEQSRLHAVEFNMLSALNEIYSYVSKYSEELIGALEQDEQARRQRLAYKVEQLINAMSIES
Consider B1, for which the “median fraction correlated (fc)” value in data set [1] was determined as 0.08; in data set [2], 0.23; in data set [3], 0.09. Besides, in data set [3], the “stoichiometry N” value is 2.

Source of the values: publication doi:10.1101/2021.02.18.431813 (bioRxiv, 2021).
